Results: article PMC2137936, “Molecular Analysis of Thymopentin Binding to HLA-DR Molecules” (PLoS ONE, 2007)
No end group written: not given here.

Target: human class II major histocompatibility complex DR molecules (HLA-DR) on EBV-transformed B cells (human (endogenous in EBV-transformed B …, UniProt P01903 26-254; P01911 30-266)
Experiment: flow cytometry on cells; 3x10^5 living EBV-transformed B cells incubated with various concentrations of FITC-labeled TP5 in PBS pH 7.4 with 1% BSA, 2 h, 37°C; washed; MFI read; apparent Kd from a double-reciprocal plot of the equilibrium data
Conditions: one partner purified

B1: FITC-labeled thymopentin (TP5) (peptide)
peptide: RKDVY
modifications: also: FITC label, position not given here
notes: thymopentin (TP5), synthetic pentapeptide corresponding to position 32~36 of thymopoietin; also called FITC-labeled TP5; fluorescent-labeled TP5; source: synthetic peptide, conjugated with FITC (Sigma) and purified
- Kd: 7.2 µM
